The record followed here is US20240368250A1 (Ablynx, published 2024).

Numbering of substitutions follows the chain as printed.

Broadly, the koff is the first-order rate constant of dissociation. Broadly, the kon is the rate constant with which the complex forms.

In assay [1] the target is T1, Human FcRn (biotinylated human FcRn) (human, UniProt P61769 21-119).
T1 construct: Biotinylated human FcRn captured on a Series S Sensor Chip SA; also called human neonatal Fc receptor; hFcRn
Nature of the assay: SPR Biacore 8K+, biotinylated hFcRn on SA chip (~500-600 RU), pH 6.0, bivalent analyte fit (kd1). Background: SPR reads the build-up and loss of mass on a sensor chip optically.

The target of assay [2] is Human serum albumin (HSA; Sigma-Aldrich Cat No. A8763) (human, UniProt P02768 25-609). As to the kind of experiment: SPR Biacore 8K+, HSA on C1 chip, pH 7.4, 1:1 fit.
Assay [3] has as its target Mouse serum albumin (MSA; Albumin Bioscience Cat No. 2601) (mouse, UniProt P07724 25-608). Nature of the assay: SPR Biacore 8K+, MSA on C1 chip, pH 7.4, 1:1 fit (off-rate only).
In assay [4] the target is T1, Human FcRn (biotinylated human FcRn). As to the kind of experiment: SPR Biacore 8K+, biotinylated hFcRn on SA chip (~500-600 RU), pH 6.0, bivalent analyte fit.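 Also: analytes were Fc proteins binding to biotinylated human FcRn captured on a Series S streptavidin sensor chip.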
Assay [5] shares this target. As to the kind of experiment: SPR Biacore 8K+, biotinylated hFcRn on SA chip (~500-600 RU), pH 6.0, bivalent analyte fit (KD1).
Assay [6] has the same target. Nature of the assay: SPR Biacore 8K+, biotinylated hFcRn on SA chip (~500-600 RU), pH 6.0, bivalent analyte fit (ka1).

B1: TPP-66144 (Fc fusion)
chain 1: DVQLVESGGGVVQAGGSLSISCAASGGSLSNYVLGWFRQAPGKEREFVAAINWRGDITIGPPNVEGRFTISRDNAKNTGYLQMNSLAPDDTALYYCGAGTPLNPGAYIYDWSYDYWGRGTLVTVSSDKTHTCPPCPAPEAAGGPSVFLFPPKPKDTLMISRTPEVTCVVVDVSQEDPEVQFNWYVDGVEVHNAKTKPREEQFNSTYRVVSVLTVLHQDWLNGKEYKCKVSNKGLPSSIEKTISKAKGQPREPQVYTLPPCQEEMTKNQVSLWCLVKGFYPSDIAVEWESNGQPENNYKTTPPVLDSDGSFFLYSKLTVDKSRWQEGNVFSCSVMHEALHNHYTQKSLSLSLGGGGGSGGGSEVQLVESGGGVVQPGGSLRLSCAASGFTFRSFGMSWVRQAPGKGPEWVSSISGSGSDTLYADSVKGRFTISRDNSKNTLYLQMNSLRPEDTALYYCTIGGSLSRSSQGTLVTVSSA
chain 2: DVQLVESGGGVVQAGGSLSISCAASGGSLSNYVLGWFRQAPGKEREFVAAINWRGDITIGPPNVEGRFTISRDNAKNTGYLQMNSLAPDDTALYYCGAGTPLNPGAYIYDWSYDYWGRGTLVTVSSDKTHTCPPCPAPEAAGGPSVFLFPPKPKDTLMISRTPEVTCVVVDVSQEDPEVQFNWYVDGVEVHNAKTKPREEQFNSTYRVVSVLTVLHQDWLNGKEYKCKVSNKGLPSSIEKTISKAKGQPREPQVCTLPPSQEEMTKNQVSLSCAVKGFYPSDIAVEWESNGQPENNYKTTPPVLDSDGSFFLVSKLTVDKSRWQEGNVFSCSVMHEALHNRFTQKSLSLSLG
notes: IgG4 FALA Fc knob-in-hole, C-terminal ALB23002 via 9GS linker
For B1, the koff is 0.0834 s⁻¹ in assay [1], 0.00124 s⁻¹ in assay [2] and 0.0842 s⁻¹ in assay [3]. Besides, the Kd in assay [2] turned out to be 51.6 nM; in assay [5], 103 nM. Moreover, the on-rate (kon) is 24000 M⁻¹ s⁻¹ in assay [2] and 808000 M⁻¹ s⁻¹ in assay [6]. This molecule displayed a KD2 in assay [4] of 2.86 M. Further, in assay [4], the ka2 is 0.017 1/RUs. Also, the kd2 in assay [4] was determined as 0.0485 s⁻¹.

B2: TPP-66149 (Fc fusion)
chain 1: DVQLVESGGGVVQAGGSLSISCAASGGSLSNYVLGWFRQAPGKEREFVAAINWRGDITIGPPNVEGRFTISRDNAKNTGYLQMNSLAPDDTALYYCGAGTPLNPGAYIYDWSYDYWGRGTLVTVSSDKTHTCPPCPAPEAAGGPSVFLFPPKPKDTLMISRTPEVTCVVVDVSQEDPEVQFNWYVDGVEVHNAKTKPREEQFNSTYRVVSVLTVLHQDWLNGKEYKCKVSNKGLPSSIEKTISKAKGQPREPQVYTLPPCQEEMTKNQVSLWCLVKGFYPSDIAVEWESNGQPENNYKTTPPVLDSDGSFFLYSKLTVDKSRWQEGNVFSCSVMHEALHNHYTQKSLSLSLGGGGGSGGGGSGGGGSGGGGSGGGGSGGGGSGGGGSEVQLVESGGGVVQPGDSLRLSCAASGGTFSTYVMGWFRQAPGKEREFVSAISQNSIHTYYANSVKGRFTISRDNSKNTVYLQLNSLRPEDTALYYCAASRFTSWYTADYEYDYWGQGTLVTVSSA
chain 2: B1 chain 2
notes: IgG4 FALA Fc knob-in-hole, C-terminal T023500029 via 35GS
B2 gave an off-rate constant (koff) in assay [1] of 0.104 s⁻¹. In assay [2], this molecule yielded a Kd of 8.2 nM, an off-rate (koff) of 0.000511 s⁻¹ and a kon of 62300 M⁻¹ s⁻¹. The molecule also displayed an off-rate (koff) in assay [3] of 0.000503 s⁻¹. Further, in assay [4], the KD2 was 3.39 M, the ka2 was 4.37e-05 1/RUs and the kd2 was 0.000148 s⁻¹. The Kd in assay [5] is 1200 nM. The same molecule came in with a kon in assay [6] of 87000 M⁻¹ s⁻¹.

B3: TPP-66148 (Fc fusion)
chain 1: DVQLVESGGGVVQAGGSLSISCAASGGSLSNYVLGWFRQAPGKEREFVAAINWRGDITIGPPNVEGRFTISRDNAKNTGYLQMNSLAPDDTALYYCGAGTPLNPGAYIYDWSYDYWGRGTLVTVSSDKTHTCPPCPAPEAAGGPSVFLFPPKPKDTLMISRTPEVTCVVVDVSQEDPEVQFNWYVDGVEVHNAKTKPREEQFNSTYRVVSVLTVLHQDWLNGKEYKCKVSNKGLPSSIEKTISKAKGQPREPQVYTLPPCQEEMTKNQVSLWCLVKGFYPSDIAVEWESNGQPENNYKTTPPVLDSDGSFFLYSKLTVDKSRWQEGNVFSCSVMHEALHNHYTQKSLSLSLGGGGGSGGGGSGGGGSGGGGSGGGGSGGGGSGGGGSEVQLVESGGGVVQPGGSLRLSCAASGLTFSSYAMGWFRQAPGKERERVVSISRGGGYTYYADSVKGRFTISRDNSKNTVYLQMNSLRPEDTALYYCAAARYWATGSEYEFDYWGQGTLVTVSSA
chain 2: B1 chain 2
notes: IgG4 FALA Fc knob-in-hole, C-terminal ALBX00002 via 35GS
B3: the koff in assay [1] is 0.11 s⁻¹. In assay [2], the Kd is 5.1 nM, the koff came to 0.000247 s⁻¹ and the kon was 48500 M⁻¹ s⁻¹. The off-rate constant (koff) in assay [3] is 0.00187 s⁻¹. In assay [4], the KD2 is 2.14 M, the ka2 is 3.33e-05 1/RUs and the kd2 was 7.12e-05 s⁻¹. The molecule also displayed a Kd in assay [5] of 1030 nM. This molecule showed an on-rate (kon) in assay [6] of 107000 M⁻¹ s⁻¹.

B4: TPP-66151 (Fc fusion)
chain 1: B1 chain 2 with C255Y, S260C, S272W, A274L, V313Y, R341H, F342Y
chain 2: DVQLVESGGGVVQAGGSLSISCAASGGSLSNYVLGWFRQAPGKEREFVAAINWRGDITIGPPNVEGRFTISRDNAKNTGYLQMNSLAPDDTALYYCGAGTPLNPGAYIYDWSYDYWGRGTLVTVSSDKTHTCPPCPAPEAAGGPSVFLFPPKPKDTLMISRTPEVTCVVVDVSQEDPEVQFNWYVDGVEVHNAKTKPREEQFNSTYRVVSVLTVLHQDWLNGKEYKCKVSNKGLPSSIEKTISKAKGQPREPQVCTLPPSQEEMTKNQVSLSCAVKGFYPSDIAVEWESNGQPENNYKTTPPVLDSDGSFFLVSKLTVDKSRWQEGNVFSCSVMHEALHNRFTQKSLSLSLGGGGGSGGGGSGGGGSGGGGSGGGGSGGGGSGGGGSVKVKFWPRGEEKVVDTSKIAWVLRADKTVMFKYDDNGKKGYGVVLEKDAPKELLDMLARAEREK
With B4, the dissociation rate constant (koff) in assay [1] stood at 0.148 s⁻¹. In assay [2], this molecule yielded a Kd of 2.61 nM, an off-rate (koff) of 0.00031 s⁻¹ and a kon of 119000 M⁻¹ s⁻¹. The molecule further showed a koff in assay [3] of 0.00175 s⁻¹. In assay [4], the KD2 is 2.08 M, the ka2 is 6.98e-05 1/RUs and the kd2 amounted to 0.000145 s⁻¹. The molecule also showed a Kd in assay [5] of 1460 nM. Moreover, in assay [6], the kon amounted to 102000 M⁻¹ s⁻¹.

B5: TPP-66147 (Fc fusion)
chain 1: DVQLVESGGGVVQAGGSLSISCAASGGSLSNYVLGWFRQAPGKEREFVAAINWRGDITIGPPNVEGRFTISRDNAKNTGYLQMNSLAPDDTALYYCGAGTPLNPGAYIYDWSYDYWGRGTLVTVSSDKTHTCPPCPAPEAAGGPSVFLFPPKPKDTLMISRTPEVTCVVVDVSQEDPEVQFNWYVDGVEVHNAKTKPREEQFNSTYRVVSVLTVLHQDWLNGKEYKCKVSNKGLPSSIEKTISKAKGQPREPQVYTLPPCQEEMTKNQVSLWCLVKGFYPSDIAVEWESNGQPENNYKTTPPVLDSDGSFFLYSKLTVDKSRWQEGNVFSCSVMHEALHNHYTQKSLSLSLGGGGGSGGGGSGGGGSGGGGSGGGGSGGGGSGGGGSEVQLVESGGGVVQPGGSLRLSCAASGFTFRSFGMSWVRQAPGKGPEWVSSISGSGSDTLYADSVKGRFTISRDNSKNTLYLQMNSLRPEDTALYYCTIGGSLSRSSQGTLVTVSSA
chain 2: B1 chain 2
notes: IgG4 FALA Fc knob-in-hole, C-terminal ALB23002 via 35GS
Molecule B5 had a koff in assay [1] of 0.107 s⁻¹. In assay [2], this molecule showed a Kd of 27.1 nM, a koff of 0.00119 s⁻¹ and an on-rate (kon) of 43800 M⁻¹ s⁻¹. In assay [3], this molecule displayed a koff of 0.075 s⁻¹. In assay [4], the KD2 was 3.17 M, the ka2 was 3.3e-05 1/RUs and the kd2 amounted to 0.000105 s⁻¹. The molecule further yielded a Kd in assay [5] of 1060 nM. Further, in assay [6], the kon is 101000 M⁻¹ s⁻¹.

B6: TPP-66152 (Fc fusion)
chain 1: B1 chain 2 with C255Y, S260C, S272W, A274L, V313Y, R341H, F342Y
chain 2: DVQLVESGGGVVQAGGSLSISCAASGGSLSNYVLGWFRQAPGKEREFVAAINWRGDITIGPPNVEGRFTISRDNAKNTGYLQMNSLAPDDTALYYCGAGTPLNPGAYIYDWSYDYWGRGTLVTVSSDKTHTCPPCPAPEAAGGPSVFLFPPKPKDTLMISRTPEVTCVVVDVSQEDPEVQFNWYVDGVEVHNAKTKPREEQFNSTYRVVSVLTVLHQDWLNGKEYKCKVSNKGLPSSIEKTISKAKGQPREPQVCTLPPSQEEMTKNQVSLSCAVKGFYPSDIAVEWESNGQPENNYKTTPPVLDSDGSFFLVSKLTVDKSRWQEGNVFSCSVMHEALHNRFTQKSLSLSLGGGGGSGGGGSGGGGSGGGGSGGGGSGGGGSGGGGSLKEAKEKAIEELKKAGITSDYYFDLINKAKTVEGVNALKDEILKA
notes: IgG4 FALA Fc knob-in-hole, C-terminal ABD via 35GS on chain 2
As for B6, the results for the koff in assay [1], in assay [2] and in assay [3] were 0.107 s⁻¹, 0.000201 s⁻¹ and 0.00111 s⁻¹, respectively. Further, the Kd in assay [2] stood at 2.24 nM; in assay [5], 1860 nM. In addition, the association rate constant (kon) in assay [2] was determined as 89500 M⁻¹ s⁻¹; in assay [6], 57500 M⁻¹ s⁻¹.

B7: TPP-66174 (Fc fusion)
chain 1: B5 chain 1 with M158Y, S160T, T162E
chain 2: B1 chain 2 with M158Y, S160T, T162E
notes: IgG4 FALA Fc (YTE) knob-in-hole, C-terminal ALB23002 via 35GS; also called ALB23002 ISVD-Fc(YTE) polypeptide
For B7, the dissociation rate constant (koff) in assay [1] was 0.00786 s⁻¹. Further, in assay [2], the Kd worked out at 21.5 nM, the koff was 0.00104 s⁻¹ and the kon is 48400 M⁻¹ s⁻¹. For the same molecule, the dissociation rate constant (koff) in assay [3] came out at 0.0819 s⁻¹. Moreover, in assay [4], the KD2 was 2.04 M, the ka2 was 55.8 1/RUs and the kd2 was 114 s⁻¹. Besides, the Kd in assay [5] amounted to 121 nM. The molecule further showed a kon in assay [6] of 65000 M⁻¹ s⁻¹.
